Patent publication US12605469B2, “Tumor specific antibody conjugates and uses therefor” (The University of North Carolina at Charlotte, priority 2019, dated 2026)
Where a chain is given by its changes, count along the chain named.

How the values were obtained:
KCM pancreatic cell line = experiment: binding to KCM pancreatic cell line; format: cell-based, mouse
Source text: FIG. 3 is a schematic (upper left panel) showing an approach for creating a triple transgenic mouse line that expresses the Cre recombinase throughout the pancreas, a mutated K-ras oncogene polypeptide, and a human MUC1 polypeptide. This mouse develops pancreatic adenocarcinoma, cells of which were used to generate the primary tumor cell line KCM (lower panel). The KCM cell line was used to test the binding of an exemplary antibody of the presently disclosed subject matter (denoted in the Figure as “TAB” and in the instant disclosure as “TAB-004”) either alone or conjugated to CpG oligodeoxynucleotides (CpG ODN).
(§1) The TAB-004 antibody alone or conjugated to CpG ODN bound to a tumor cell line (referred to herein as the “KCM” cell line; see FIG. 3) generated from the triple transgenic PDA.MUC1.Tg mice.

KCM tumor = experiment: in vivo anti-tumor activity against established KCM tumor; design: species or system mouse
Method: FIG. 5A is a line graph showing the measured tumor volumes (in mm measured by digital calipers) in mice treated with phosphate-buffered saline (PBS) alone (negative control; filled squares), CpG ODN alone (X's), the unconjugated TAB-004 antibody (open circles), or the TAB-004-CpG ODN conjugate (filled circles). FIG. 5B is a bar graph showing the changes in tumor volumes in mice at 19 and 27 days after the final treatment was administered. […] PBS alone (negative control; white bars); CpG ODN alone (hatched bars); unconjugated TAB-004 antibody (black bars); TAB-004-CpG ODN conjugate (cross-hatched bars). […] The treatment groups and the schedule and dose were as illustrated in FIGS. 5A and 5B. Briefly, 3×10^6 KCM tumor cells were administered subcutaneously into the flank region of mice (n=10 mice) at day 0. At days 4, 10, and 16, 50 μg of a TAB-004-CpG ODN conjugate were administered intratumorally (without adjuvant) to each mouse. The same amounts of antibody were administered to an antibody alone group (unconjugated TAB-004) for comparison. Mice were sacrificed at day 20 and tumors recovered.

KCM tumor cells = experiment: NK cell specific lysis of tumor cells; format: cell-based, mouse; conditions: various E:T ratios
Source text: FIGS. 4A and 4B are graphs showing that an exemplary antibody of the presently disclosed subject matter (TAB-004) enhanced the cytotoxicity of Natural Killer (NK) cells to kill target tumor cells.
as §1

[1] = physical properties of MSN materials (DLS, zeta-potential, TGA, TEM); format: physicochemical
Source text: The MSN conjugates were characterized by dynamic light scattering (DLS), thermogravimetric analysis (TGA), and transmission electron microscopy (TEM). […] DLS results indicated slight aggregation. The surface charges were as expected during the different synthesis steps, with the final TAB-004-MSN neutral surface charge indicating successful functionalization of MSN. The PEG linker was quantified by TGA to be about 6-7% by weight.

KCM lysate = biological target: T1, KCM lysate (Homo sapiens, UniProt P15941); experiment: sandwich ELISA of humanized TAB004 antibodies on KCM lysate; format: binding, mouse; conditions: compared with chimeric parental antibody
T1 construct: expressed in transfected cells; host or cells: KCM, a primary mouse pancreatic adenocarcinoma line from P48-Cre x LSL-Kras G12D x human MUC1.Tg mice; whole-cell lysate at 10 ug/mL
Method: Antigen binding (KCM lysate) to the 9 humanized antibody combinations and the chimeric parental antibody were evaluated by sandwich ELISA. For this, ELISA plates were coated with hybridoma antibody (1 μg/mL) overnight at 4° C. in the dark and then blocked with 2% BSA for 2 hours at room temperature to reduce non-specific binding. KCM lysate (10 μg/mL) was then added and incubated for 2 hours at room temperature. Antibodies were diluted in 5-fold increments for a total of seven data points and were added to the ELISA wells for 2 hours at room temperature. The plate was washed with PBS three times, and then incubated with HRP conjugated goat anti-human IgG antibody for 2 hours. The plate was washed three times with PBS. TMB, the HRP substrate, was added to each well for color development for 5 minutes at room temperature. Equal amount of 1N HC1 stop solution was added to each well to terminate the reaction.

T1 sequence (P15941 24-1255): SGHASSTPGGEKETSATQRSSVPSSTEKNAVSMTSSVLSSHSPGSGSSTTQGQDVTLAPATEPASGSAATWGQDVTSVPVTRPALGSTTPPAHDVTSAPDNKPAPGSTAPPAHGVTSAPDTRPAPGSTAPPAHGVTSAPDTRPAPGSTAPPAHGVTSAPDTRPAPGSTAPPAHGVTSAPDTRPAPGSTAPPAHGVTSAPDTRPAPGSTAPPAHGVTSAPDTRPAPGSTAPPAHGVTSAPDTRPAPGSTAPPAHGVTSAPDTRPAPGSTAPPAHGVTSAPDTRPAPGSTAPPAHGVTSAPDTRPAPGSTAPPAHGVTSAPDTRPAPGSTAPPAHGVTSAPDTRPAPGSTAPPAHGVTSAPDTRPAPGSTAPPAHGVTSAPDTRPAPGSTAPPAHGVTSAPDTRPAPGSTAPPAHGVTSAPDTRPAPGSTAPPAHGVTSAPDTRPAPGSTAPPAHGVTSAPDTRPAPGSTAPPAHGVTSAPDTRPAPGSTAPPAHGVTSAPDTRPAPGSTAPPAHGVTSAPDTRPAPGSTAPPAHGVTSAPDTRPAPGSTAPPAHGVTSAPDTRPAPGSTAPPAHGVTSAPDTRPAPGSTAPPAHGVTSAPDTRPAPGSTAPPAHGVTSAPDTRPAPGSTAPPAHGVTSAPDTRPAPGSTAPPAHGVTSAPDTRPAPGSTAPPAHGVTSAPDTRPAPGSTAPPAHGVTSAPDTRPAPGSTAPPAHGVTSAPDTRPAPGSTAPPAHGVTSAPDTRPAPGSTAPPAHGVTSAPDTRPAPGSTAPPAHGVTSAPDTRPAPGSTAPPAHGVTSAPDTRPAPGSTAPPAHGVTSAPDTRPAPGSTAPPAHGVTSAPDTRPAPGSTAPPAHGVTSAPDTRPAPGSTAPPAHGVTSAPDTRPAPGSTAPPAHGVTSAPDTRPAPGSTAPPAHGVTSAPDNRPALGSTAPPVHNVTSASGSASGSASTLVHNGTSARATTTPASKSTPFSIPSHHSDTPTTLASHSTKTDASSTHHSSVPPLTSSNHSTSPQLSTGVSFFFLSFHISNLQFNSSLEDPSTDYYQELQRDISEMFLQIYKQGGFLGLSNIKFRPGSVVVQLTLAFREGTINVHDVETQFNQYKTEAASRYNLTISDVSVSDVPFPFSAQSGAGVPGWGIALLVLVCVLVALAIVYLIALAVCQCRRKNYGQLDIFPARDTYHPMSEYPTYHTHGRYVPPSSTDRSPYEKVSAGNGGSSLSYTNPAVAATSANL

B1: TAB-004-CpG ODN conjugate (conjugate)
VH: EVQLQQSGGERATPGASVKMSCKTSGYTFTNYWMHWVKQRPGQGLEWIGYINPSSGYTQYNQKFKDKATLTADKSSSTAYIQLSSLTSEDSAVYYCSTYYGDYLFPYWGQGTLVTVSA
VL: DVLMTQTPLSLPVSLGDQASISCRSSQDIVYGNGNTYLEWYLQKPGQSPKLLIYKVSNRFSGVPDRFSGSGSGTDFTLKISRVEAEDLGVYYCFQGSHVPYTFGGGTKLEIKR
- binding to KCM cell line (KCM pancreatic cell line): bound to the KCM pancreatic cell line with equal affinity
- growth of established tumor (KCM tumor; 50 μg intratumorally at days 4, 10, and 16): completely stopped the growth of an established tumor leading to complete eradication
- tumor volumes at 19 and 27 days post-treatment (KCM tumor; compared to control mice): had not increased
- tumor regrowth after cessation of treatment (KCM tumor; mouse, in vivo): did not grow back the tumors
- specific lysis of tumor cells by NK cells (KCM tumor cells): further enhanced specific lysis of tumor cells

B2: TAB-004-MSN (conjugate)
VH: B1 VH
VL: B1 VL
- PDI [1]: 0.35
- Size (nm) ([1]; determined in 1 mM PBS, pH 7.4): 342.0 nm
- Zeta-potential (mV) ([1]; determined in 1 mM PBS, pH 7.4): −5.6 ± 0.8 mV

B3: Humanized HC3 + LC2: heavy chain H6247, light chain L6246 (antibody)
heavy: EVQLVQSGAEVKKPGASVKVSCKASGYTFTNYWMHWVRQAPGQGLEWMGYINPSSGYTQYNQKFQGWVTMTADTSISTAYMELSRLRSDDTAVYYCSTYYGDYLFPYWGQGTLVTVSSASTKGPSVFPLAPCSRSTSESTAALGCLVKDYFPEPVTVSWNSGALTSGVHTFPAVLQSSGLYSLSSVVTVPSSNFGTQTYTCNVDHKPSNTKVDKTVERKCCVECPPCPAPPVAGPSVFLFPPKPKDTLMISRTPEVTCVVVDVSHEDPEVQFNWYVDGVEVHNAKTKPREEQFNSTFRVVSVLTVVHQDWLNGKEYKCKVSNKGLPAPIEKTISKTKGQPREPQVYTLPPSREEMTKNQVSLTCLVKGFYPSDIAVEWESNGQPENNYKTTPPMLDSDGSFFLYSKLTVDKSRWQQGNVFSCSVMHEALHNHYTQKSLSLSPG
light: DVVMTQSPLSLPVTLGQPASISCRSSQDIVYGNGNTYLEWYQQRPGQSPRLLIYKVSNRFSGVPDRFSGSGSGTDFTLKISRVEAEDVGVYYCFQGSHVPYTFGQGTKLEIKRTVAAPSVFIFPPSDEQLKSGTASVVCLLNNFYPREAKVQWKVDNALQSGNSQESVTEQDSKDSTYSLSSTLTLSKADYEKHKVYACEVTHQGLSSPVTKSFNRGEC
- binding by ELISA (KCM lysate): retained binding similar to the chimeric parental antibody

B4: Humanized HC3 + LC3: heavy chain H6247, light chain L6247 (antibody)
heavy: B3 heavy
light: B3 light with V2I, M4L, R66S, K79T, V90I, Q105E
- binding by ELISA (KCM lysate): retained binding similar to the chimeric parental antibody
